Assay results from article PMC9818519.

Biological target: His-HAT1 (Homo sapiens) (UniProt O14929)
Experiment: ELONA
Settings: ELONA: PBS + 1 mM MgCl2 (selection buffer), 37 °C, 1 h; 100 ng HAT1/well adsorbed; 0.2% BSA block; aptamers heated 95 °C 10 min then ice 10 min

UniProt O14929, sequence (O14929 whole entry): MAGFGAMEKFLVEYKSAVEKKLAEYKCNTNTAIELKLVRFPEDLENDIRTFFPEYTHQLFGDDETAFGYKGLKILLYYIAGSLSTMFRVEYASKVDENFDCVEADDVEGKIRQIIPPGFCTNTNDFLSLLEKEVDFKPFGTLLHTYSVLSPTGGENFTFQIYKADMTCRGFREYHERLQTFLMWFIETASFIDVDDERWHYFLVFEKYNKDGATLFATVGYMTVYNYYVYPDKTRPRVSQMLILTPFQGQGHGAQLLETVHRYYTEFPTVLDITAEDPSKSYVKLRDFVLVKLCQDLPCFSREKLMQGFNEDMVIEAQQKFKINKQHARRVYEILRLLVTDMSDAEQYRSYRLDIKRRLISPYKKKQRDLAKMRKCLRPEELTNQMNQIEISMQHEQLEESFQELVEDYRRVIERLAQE

**Q.** “GCGGATGAAGACTGGTGTCGAGGGGGGGGCGGGCGGGTGGGTTGGCTCTTCATGCCTGTGCCC [apHAT63T]” was tested. Which Kd did it give?
**A.** Its Kd is 43.7 nM.

**Q.** For “GCGGATGAAGACTGGTGTCGAGGGGGGGGCGGGCGGGTGGGTTGGCTCTTCATGCCTGTGCCCTAAATACGAGCAAC [apHAT63 (63F)]”, which Kd is on record?
**A.** Its Kd is 38 nM.

**Q.** For “GTTGCTCGTATTTAGGGCGGGGGGGCGGGGGAGGAGGTGGCGGGAATATCCATTGTCTACACCAGTCTTCATCCGC [apHAT610 (610R)]”, which Kd is on record?
**A.** Its Kd is 28.1 nM.
